The target of assay [1] is tumor necrosis factor alpha (TNF-α), R&D Systems 210-TA-005 (UniProt P01375). The experiment in a line: t-PLA, buffer; TNF-α 1.00E-08 M.
Assay [2] shares this target. The assay can be described thus: t-PLA, buffer; TNF-α 1.00E-10 M.
The target is the same in assay [3]. The experiment in a line: t-PLA, buffer; TNF-α 1.00E-12 M.
The target is the same in assay [4]. The assay can be described thus: c-PLA 1X probes, buffer; TNF-α 1.00E-11 M.
Assay [5] has the same target. The assay can be described thus: c-PLA 10X probes, buffer; TNF-α 1.00E-11 M.
Assay [6] has the same target. The experiment in a line: t-PLA 10X probes, buffer; TNF-α 5.00E-07 M.
The target is the same in assay [7]. The assay can be described thus: c-PLA 1X probes, human plasma; TNF-α 1.00E-08 M.
For assay [8] the target is unchanged. The experiment in a line: c-PLA 1X probes, human plasma; TNF-α 1.00E-10 M.
Assay [9] has the same target. The assay can be described thus: t-PLA 1X probes, human plasma; TNF-α 1.00E-08 M.
Assay [10] shares this target. The assay can be described thus: c-PLA 10X probes, human plasma; TNF-α 1.00E-10 M.
The target is the same in assay [11]. The assay can be described thus: c-PLA 10X probes, human plasma; TNF-α 1.00E-13 M.
Assay [12] has the same target. The experiment in a line: SPR (Biacore T200), biotinylated antibody on CAP chip, 1:1 fit.
Assay [13] shares this target. The experiment in a line: BLI (Octet RED), antibody on protein G sensors, 1:1 global fit.
For assay [14], the target named is vascular endothelial growth factor (VEGF), R&D Systems 293-VE-010 (human) (UniProt P15692). The experiment in a line: c-PLA, buffer; VEGF 1.00E-09 M.
The target is the same in assay [15]. The assay can be described thus: c-PLA, buffer; VEGF 1.00E-11 M.
Assay [16] has the same target. The experiment in a line: c-PLA, buffer; VEGF 1.00E-14 M.
Assay [17] has the same target. The experiment in a line: t-PLA, buffer; VEGF 1.00E-09 M.
For assay [18] the target is unchanged. The experiment in a line: c-PLA, human plasma; VEGF 1.00E-11 M.
For assay [19] the target is unchanged. The experiment in a line: c-PLA, human plasma; VEGF 1.00E-13 M.
For assay [20] the target is unchanged. The experiment in a line: t-PLA, human plasma; VEGF 1.00E-09 M.
Assay [21] has the same target. The assay can be described thus: t-PLA, human plasma; VEGF 1.00E-10 M.
The target is the same in assay [22]. The experiment in a line: c-PLA, chicken plasma; VEGF 1.00E-14 M.
Assay [23] has the same target. The experiment in a line: c-PLA with preamplification; VEGF 1.00E-11 M.
The target is the same in assay [24]. The assay can be described thus: t-PLA with preamplification; VEGF 1.00E-08 M.
The target is the same in assay [25]. The experiment in a line: t-PLA with preamplification; VEGF 1.00E-10 M.
For assay [26] the target is unchanged. The assay can be described thus: t-PLA with preamplification; VEGF 1.00E-12 M.
Assay [27] shares this target. The assay can be described thus: SPR (Biacore T200), biotinylated antibody on CAP chip, 1:1 fit.
Assay [28] shares this target. The experiment in a line: BLI (Octet RED), antibody on protein G sensors, 1:1 global fit.

Experimental findings from patent US20190360025A1 are described below.

Chain of UniProt P15692 (P15692 other isoform, or with tags, fused parts or gaps limits assumed): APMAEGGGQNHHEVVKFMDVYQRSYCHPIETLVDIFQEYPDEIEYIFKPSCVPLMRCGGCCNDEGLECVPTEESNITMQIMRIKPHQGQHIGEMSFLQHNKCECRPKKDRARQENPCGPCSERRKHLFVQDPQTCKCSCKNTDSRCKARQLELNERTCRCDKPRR
Chain of UniProt P01375 (P01375 77-233 limits assumed): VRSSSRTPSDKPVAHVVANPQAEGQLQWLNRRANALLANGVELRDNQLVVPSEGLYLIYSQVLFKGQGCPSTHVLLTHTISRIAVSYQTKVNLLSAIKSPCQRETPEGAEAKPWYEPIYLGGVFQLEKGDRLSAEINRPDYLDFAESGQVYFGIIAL

On to “affinity-purified polyclonal anti-TNF-α antibody (R&D Systems AF-210-NA)”, for which the Counts in [1] was 5.4e+07; in assay [3], 1.65e+06; in assay [4], 22.1; in assay [5], 590; in [6], 2.24e+09; in assay [7], 4770. Moreover, the Counts in assay [8] stood at 331; in assay [9], 1.79e+07; in [10] it was 7420; in [11] it was 2030. Besides, the SBR in [1] worked out at 317; in [2], 15.9; in [3], 9.7; in assay [4] it was 1.4; in assay [6], 392; in assay [7], 63. In addition, the values for the SBR in [8] and in assay [9] were 4.4 and 75, respectively. The equilibrium dissociation constant (Kd) amounted to 0.28 nM in assay [12] and 6.43 nM in assay [13].

On to “affinity-purified polyclonal anti-VEGF antibody (R&D Systems AF-293-NA)”, for which the Counts in assay [14] is 778000; in assay [15], 4820; in assay [16], 203; in assay [17] it was 3.98e+09; in [18], 1770; in [19] it was 310. The Counts turned out to be 1.4e+08 in [20]; 4.9e+07 in assay [21]; 10.7 in assay [22]; 4.88e+06 in assay [23]; 1e+09 in [24]; 1.78e+08 in assay [25]. In [26], this substance yielded a Counts of 1.26e+06. Moreover, the SBR is 26200 in assay [14]; 162 in assay [15]; 6.8 in [16]; 11500 in assay [17]; 6.8 in [18]; 1.2 in [19]. In addition, the SBR was 86 in assay [20]; 30 in [21]; 1.2 in assay [22]; 82 in [23]; 5680 in [24]; 1010 in [25]. In assay [26], this substance came in with an SBR of 7.1. For the same substance, the Kd in assay [27] turned out to be 0.0036 nM; in assay [28] it was 0.057 nM.
